Reference: patent US20230212304A1 (BIOSION, published 2023)
Changes are numbered by the printed parent chain. Like-named read-outs stand apart in the source and are kept apart here. Blank lines part the entries; values can stand above or below the binder they belong to.

Key:
[1] = target: T1, recombinant human CTLA4 protein with human IgG1 Fc tag at the C-terminus (Acro biosystems, Cat#CT4-H5255) (human, UniProt P16410 37-162); experiment: cell-based or functional assay
T1 sequence (looked up): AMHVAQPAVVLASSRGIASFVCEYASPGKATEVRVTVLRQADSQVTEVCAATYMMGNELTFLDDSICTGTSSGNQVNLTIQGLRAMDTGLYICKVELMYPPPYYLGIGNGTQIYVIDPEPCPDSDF

[2] = target: T1, recombinant human CTLA4 protein with …; experiment: cell-based or functional assay; remark: listed apart in the source
[3] = target: T2, recombinant human CTLA4-his protein (Acro biosystems, Cat#CT4-H5229) (human, UniProt P16410 37-162); experiment: SPR, Biacore T200; antibody captured, CTLA4-his as analyte
T2 construct: bought recombinant protein; not shown: his tag
T2 sequence (looked up): T1 sequence (looked up)
Description: (§1) Un-reacted moieties on the biosensor surface were blocked with ethanolamine. […] The antigen-antibody association kinetics was followed for 2 minutes and the dissociation kinetics was followed for 10 minutes. The association and dissociation curves were fit to a 1:1 Langmuir binding model using BIAcore evaluation software.

[4] = target: T3, cynomolgus monkey CTLA4-his protein (Acro biosystems, Cat#CT4-C5227) (cynomolgus monkey, UniProt G7PL88 36-161); experiment: as above
T3 construct: bought recombinant protein; also called Cynomolgus CTLA4-his; not shown: his tag
T3 sequence: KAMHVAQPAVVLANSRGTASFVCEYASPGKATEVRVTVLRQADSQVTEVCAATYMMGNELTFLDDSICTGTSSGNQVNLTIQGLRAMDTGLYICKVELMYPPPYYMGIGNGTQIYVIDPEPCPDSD
Description: as §1

[5] = target: T1, recombinant human CTLA4 protein with …; experiment: capture ELISA (plate coated with goat anti-human IgG F(ab')2 per paragraph 181), biotin human CTLA4-Fc, streptavidin-HRP, OD(450-630)
Description: (§2) Plates were washed once with wash buffer (PBS+0.05% v/v Tween-20, PBST) and then blocked with 200 µl/well blocking buffer (PBST with 5% w/v non-fatty milk) for 2 hours at 37° C. […] After a final wash, plates were incubated with 100 µl/well substrate TMB (Innoreagents, Cat#TMB-S-002). The reaction was stopped in 15 minutes at room temperature with 50 µl/well 1M H₂SO₄, and the absorbance of the each well was read on a microplate reader using dual wavelength mode with 450 nm for TMB and 630 nm as the reference wavelength, then the OD (450-630) values were plotted against antibody concentration. Data was analyzed using Graphpad Prism software and EC₅₀ values were reported.
(§3) In the capture ELISA assay, the 96-well micro plates were coated with 2 µg/ml goat anti-human IgG (AffiniPure Goat Anti-Human IgG, F(ab′)₂ fragment specific, Jackson Immunoresearch, Cat#109-005-097) instead of the goat anti-mouse IgG F(ab′)₂ fragment, 100 µl/well.

[6] = target: T1, recombinant human CTLA4 protein with …; experiment: capture ELISA: antibody captured on anti-mouse IgG F(ab')2 coated plate, biotin human CTLA4-Fc 26 ng/ml, streptavidin-HRP, OD(450-630)
Description: as §2

[7] = target: T1, recombinant human CTLA4 protein with …; experiment: cell based blocking FACS: antibody pre-mixed with human CTLA4-Fc, added to Daudi cells; blocked ligands: cell surface CD80/CD86
[8] = target: T1, recombinant human CTLA4 protein with …; experiment: as above; remark: listed apart in the source
Description: (§4) Daudi cells were harvested from cell culture flasks at the log phase, washed twice and re-suspended in PBS containing 2% v/v Fetal Bovine Serum (FACS buffer). […] Cells were washed twice and re-suspended in FACS buffer. Fluorescence was measured using a Becton Dickinson FACS Canto II-HTS equipment. Data was analyzed using Graphpad Prism software and IC₅₀ values were reported.
as §3

[9] = target: T1, recombinant human CTLA4 protein with …; experiment: competitive ELISA: antibody pre-mixed with biotin human CTLA4-Fc, added to plate coated with the benchmark; competitor: coated Yervoy
Description: (§5) Plates were washed once with wash buffer, blocked with 200 µl PBST with 5% w/v non-fatty milk, incubated for 2 hours at 37° C., and washed 4 times.
(§6) After incubation at 37° C. for 40 minutes, plates were washed 4 times again using wash buffer. Then the plates were added and incubated with 100 µl/well streptavidin conjugated HRP (1:10000 dilution in PBST, Jackson Immuno Research, Cat#016-030-084, 100 µl/well) for 40 minutes at 37° C. Plates were finally washed using wash buffer. Finally, TMB was added and the reaction was stopped using 1M H₂SO₄, and the absorbance of the each well was read on a microplate reader using dual wavelength mode with 450 nm for TMB and 630 nm as the reference wavelength, then the OD (450-630) values were plotted against antibody concentration. Data was analyzed using Graphpad Prism software and IC₅₀ values were reported.
as §3

[10] = target: T1, recombinant human CTLA4 protein with …; experiment: cell based blocking FACS: antibody pre-mixed with human CTLA4-Fc (1 ug/mL), added to Daudi cells; blocked ligands: cell surface CD80/CD86
Description: as §4

[11] = target: T1, recombinant human CTLA4 protein with …; experiment: competitive ELISA: antibody pre-mixed with biotin human CTLA4-Fc (65 ng/ml), added to plate coated with the benchmark; competitor: coated Yervoy
Description: as §5, §6

[12] = target: T1, recombinant human CTLA4 protein with …; experiment: capture ELISA: antibody captured on coated plate (anti-human IgG Fc for the chimeric antibodies), biotin human CTLA4-Fc, streptavidin-HRP, OD(450-630)
Description: as §2
For the capture ELISA, AffiniPure Goat Anti-Human IgG, Fcy fragment specific (Jackson Immuno Research, Cat#109-005-008) was used instead of AffiniPure Goat Anti-Mouse IgG, F(ab′)₂ fragment specific, 100 µl/well.

[13] = target: T2, recombinant human CTLA4-his protein …; experiment: BLI, Octet RED96; antibody on AHC sensor, CTLA4-his as analyte
Description: (§7) Briefly, AHC biosensors (anti-human IgG Fc capture, from ForteBio) were presoaked with 10 mM glycine (pH 1.5) for 3 seconds, and then dipped in a well with running buffer (0.5% w/v BSA in PBST) for 3 seconds, the soaking and dipping steps were repeated for three times. […] A new baseline was run for 180 seconds in another well with running buffer. […] Finally, sensors were presoaked with 10 mM glycine (pH 1.5) for 3 seconds, and then were dipped in a well with running buffer for 3 seconds, the soaking and dipping steps repeated for three times. The association and dissociation curves were fit to a 1:1 Langmuir binding model using ForteBio Data Analysis 8.1.

[14] = target: T2, recombinant human CTLA4-his protein …; experiment: BLI, Octet; antibody at 5 ug/ml on AHC sensor, CTLA4-his as analyte
Description: as §7

[15] = target: T2, recombinant human CTLA4-his protein …; experiment: SPR, Biacore; antibody captured on anti-human IgG CM5 chip, CTLA4-his as analyte
Description: as §1, with “software. […]” for “software.”

[16] = target: T3, cynomolgus monkey CTLA4-his protein …; experiment: as above
Description: as §1, with “software. […]” for “software.”

[17] = target: T1, recombinant human CTLA4 protein with …; experiment: cell based blocking FACS: antibody pre-mixed with human CTLA4-Fc, added to Daudi cells; blocked ligands: cell surface CD80/CD86; remark: listed apart in the source
[18] = target: T1, recombinant human CTLA4 protein with …; experiment: as above; remark: listed apart in the source
Description: as §4

[19] = target: T2, recombinant human CTLA4-his protein …; experiment: BLI, Octet; antibody from cell supernatant on AHC sensor, CTLA4-his as analyte

B3: mouse anti-CTLA4 monoclonal antibody D1D5 (antibody, V domains shown)
VH: EVKLVESGGGLVKPGGSLKLSCAASGFTFSDYGMAWVRQAPGKGPEWVAFISNLAYSVYYADTETGRFTISREDAKNTLYLEMSSLRSEDTAMYYCARSGLPYAMDYWGQGTSVTVSS
VL: DIQMTQTTSSLSASLGDRVTISCRASQDISNYLNWYQQKPDGTVKLLIYYISRLHSGVPSRFSGSGSGTDFSLTISNLEQEDIATYFCQQGRMLPWTFGGGTRLEIK
notes: mouse mAb purified from hybridoma supernatant
EC50 of IL-2 release (GS-J1 T cells + GS-C1/CD80 cells + human CTLA4-Fc, IL-2 HTRF) [1]: 37.5 nM
EC50 of IL-2 release (GS-J1 T cells + GS-C1/CD80 cells + human CTLA4-Fc, IL-2 HTRF) [2]: 42.3 nM
Kd [3]: 1.89 nM
koff [3]: 0.000276 s⁻¹
kon [3]: 146000 M⁻¹ s⁻¹
Kd [4]: 4.67 nM
koff [4]: 0.00047 s⁻¹
kon [4]: 101000 M⁻¹ s⁻¹
EC50 [5]: 0.778 nM
EC50 [6]: 0.103 nM
IC50 [17]: 9.67 nM
IC50 [18]: 5.82 nM
IC50 [9]: 5.75 nM
IC50 [10]: 4.77 nM
IC50 [11]: 0.646 nM
EC50 [12]: 0.632 nM

B4: huD1D5-V9 (antibody, human IgG4 S228P, kappa, V domains shown)
VH: B3 VH with K3Q, K19R, E73D, T78S, E82Q, S84N, S88A, M93V, S113T
VL: DIQMTQSPSSLSASVGDRVTITCRASQDISNYLNWYQQKPGKVPKLLIYYISRLHSGVPSRFSGSGSGTDFTLTISSLQPEDVATYYCQQGRMLPWTFGGGTKVEIKR
notes: humanized IgG4/kappa; cell supernatant on Octet, purified antibody in Biacore, ELISA, FACS and the functional assay; also called hu CTLA4 D1D5-V9; huDID5-V9
EC50 of IL-2 release (GS-J1 T cells + GS-C1/CD80 cells + human CTLA4-Fc, IL-2 HTRF) [2]: 27.3 nM
Kd [19]: 4.37 nM
koff [19]: 0.000471 s⁻¹
kon [19]: 108000 M⁻¹ s⁻¹
Kd [15]: 3.02 nM
koff [15]: 0.000519 s⁻¹
kon [15]: 172000 M⁻¹ s⁻¹
Kd [16]: 2.13 nM
koff [16]: 0.000576 s⁻¹
kon [16]: 271000 M⁻¹ s⁻¹
EC50 [5]: 0.516 nM
IC50 [18]: 5.53 nM
IC50 [9]: 0.642 nM

Binders with a lower EC50 [5], results first:

EC50 of IL-2 release (GS-J1 T cells + GS-C1/CD80 cells + human CTLA4-Fc, IL-2 HTRF) [2]: 34 nM
Kd [13]: 0.335 nM
koff [13]: 0.000296 s⁻¹
kon [13]: 884000 M⁻¹ s⁻¹
Kd [14]: < 0.001 nM
koff [14]: < 1e-07 s⁻¹
kon [14]: 525000 M⁻¹ s⁻¹
Kd [15]: 0.629 nM
koff [15]: 0.000422 s⁻¹
kon [15]: 670000 M⁻¹ s⁻¹
Kd [16]: 0.243 nM
koff [16]: 0.000398 s⁻¹
kon [16]: 1.64e+06 M⁻¹ s⁻¹
EC50 [5]: 0.156 nM
IC50 [7]: 8.56 nM
IC50 [8]: ~9.96 nM
IC50 [9]: 2.11 nM
EC50 [12]: 0.505 nM
B2: chimeric C1D1 anti-CTLA4 antibody (antibody, human IgG4 S228P, kappa, V domains shown)
VH: EVKLDETGGGLVQPGRPLKLSCVASGFTFSDNWMNWVRQSPEKGLEWVAQIRNKPYNYETYYSDSVKGRFTISRDDSKSSVYLQMNNLRVEDMGIYYCTGGMDYWGQGTSVTVSS
VL: DIQMTQSPASLSASVGETVTITCGASEIIYGALNWYQQKQGKSPQLLIYGATNLADGMSSRFSGSGSGRQYSLKISSLHPDDAATYYCQKILSPPPWTFGGGTKLEIKR
notes: mouse variable domains on human IgG4/kappa, made in 293F cells

EC50 of IL-2 release (GS-J1 T cells + GS-C1/CD80 cells + human CTLA4-Fc, IL-2 HTRF) [1]: 35.1 nM
EC50 of IL-2 release (GS-J1 T cells + GS-C1/CD80 cells + human CTLA4-Fc, IL-2 HTRF) [2]: 30 nM
Kd [3]: 0.399 nM
koff [3]: 0.0001 s⁻¹
kon [3]: 251000 M⁻¹ s⁻¹
Kd [4]: 0.183 nM
koff [4]: 8.76e-05 s⁻¹
kon [4]: 478000 M⁻¹ s⁻¹
EC50 [5]: 0.121 nM
EC50 [6]: 0.0479 nM
IC50 [7]: ~11.6 nM
IC50 [8]: ~9.72 nM
IC50 [9]: 0.8 nM
IC50 [10]: 6.22 nM
IC50 [11]: 0.338 nM
EC50 [12]: 0.445 nM
B1: mouse anti-CTLA4 monoclonal antibody C1D1 (antibody, V domains shown)
VH: B2 VH
VL: DIQMTQSPASLSASVGETVTITCGASEIIYGALNWYQQKQGKSPQLLIYGATNLADGMSSRFSGSGSGRQYSLKISSLHPDDAATYYCQKILSPPPWTFGGGTKLEIK
notes: as for B3
